Measurements taken from paper PMC5785358, “The STENOFOLIA gene from Medicago alters leaf width, flowering time and chlorophyll content in transgenic wheat”.

T1: MBP-STF full length (STENOFOLIA) (Medicago truncatula, UniProt G0ZGT3 1-358)
T1 sequence: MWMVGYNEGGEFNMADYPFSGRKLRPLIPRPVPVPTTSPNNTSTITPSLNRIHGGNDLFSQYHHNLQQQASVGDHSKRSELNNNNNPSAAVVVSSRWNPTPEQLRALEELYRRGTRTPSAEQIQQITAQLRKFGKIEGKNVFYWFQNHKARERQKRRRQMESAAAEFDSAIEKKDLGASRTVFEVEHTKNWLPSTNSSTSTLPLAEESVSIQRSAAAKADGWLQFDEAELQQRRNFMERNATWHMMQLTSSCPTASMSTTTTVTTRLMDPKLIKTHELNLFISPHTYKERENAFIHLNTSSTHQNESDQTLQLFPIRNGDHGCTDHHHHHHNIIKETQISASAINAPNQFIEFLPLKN

T2: MBP-STF S3 (Medicago truncatula, UniProt G0ZGT3 1-90)
T2 sequence: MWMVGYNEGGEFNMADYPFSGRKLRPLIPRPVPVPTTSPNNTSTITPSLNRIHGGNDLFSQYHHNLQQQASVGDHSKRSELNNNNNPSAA

T3: MBP-STF S1 (Medicago truncatula, UniProt G0ZGT3 1-262)
T3 sequence: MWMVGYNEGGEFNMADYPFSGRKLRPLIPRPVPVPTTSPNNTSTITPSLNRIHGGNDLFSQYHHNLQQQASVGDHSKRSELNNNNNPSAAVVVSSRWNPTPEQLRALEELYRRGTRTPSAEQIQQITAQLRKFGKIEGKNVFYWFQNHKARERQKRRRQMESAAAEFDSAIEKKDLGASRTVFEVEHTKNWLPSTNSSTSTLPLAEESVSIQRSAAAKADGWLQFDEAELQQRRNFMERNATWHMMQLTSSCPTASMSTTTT

T4: MBP-STF S2 (Medicago truncatula, UniProt G0ZGT3 263-358)
T4 sequence: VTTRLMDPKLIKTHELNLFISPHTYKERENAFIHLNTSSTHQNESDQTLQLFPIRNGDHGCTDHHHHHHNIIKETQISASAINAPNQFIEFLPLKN

B1: TaACC-B1 probe (dsDNA)
DNA 1: TTCTTCCAGGTGAATACACAGCACTAACATGGCATAATCTGACAGGATAAATCTCCTTATCGATCTATCCTTAATGCTCATCTGCTCTCTCTCTCTCTCTCTCTCTCTTTTTCGGTGGTGCGTGCAGGTCCTGGACCACGGCATCTCGACGGAGCTGATGGACAAGGTGGAGAAGATGACCAAGG
DNA 2: CCTTGGTCATCTTCTCCACCTTGTCCATCAGCTCCGTCGAGATGCCGTGGTCCAGGACCTGCACGCACCACCGAAAAAGAGAGAGAGAGAGAGAGAGAGAGCAGATGAGCATTAAGGATAGATCGATAAGGAGATTTATCCTGTCAGATTATGCCATGTTAGTGCTGTGTATTCACCTGGAAGAA
B2: TaACC-D1 probe (dsDNA)
DNA 1: TTCTTCCAGGTGAATACACCACAGTAGTAATATGGCATAATCTGACAAGATGAATCTCCTCATCGACCCATCCTTAATGTTGATTTGCTCTCTCTCTGTTTTCGGCGGTGCGTGCAGGTTCTGGACCACGGCATCTC
DNA 2: GAGATGCCGTGGTCCAGAACCTGCACGCACCGCCGAAAACAGAGAGAGAGCAAATCAACATTAAGGATGGGTCGATGAGGAGATTCATCTTGTCAGATTATGCCATATTACTACTGTGGTGTATTCACCTGGAAGAA
B3: Ta6SFT-A1 probe (dsDNA)
DNA 1: ACTCCACGCACTAACTTTTTTAATAAGGTCTTCTGTGTGGGGAAAAAGACGGGATCTCTCTCTCTAGACATAATCAAAAGGGATTGTTTAACTCACACCAAATTTGGAGGAAAACTTTGACAGCAAAACAGGGGAAAACAGAGTTTCCATAGCGGGTTGGGGGTTCACTTCACAGTGGCGTAGATTGGA
DNA 2: TCCAATCTACGCCACTGTGAAGTGAACCCCCAACCCGCTATGGAAACTCTGTTTTCCCCTGTTTTGCTGTCAAAGTTTTCCTCCAAATTTGGTGTGAGTTAAACAATCCCTTTTGATTATGTCTAGAGAGAGAGATCCCGTCTTTTTCCCCACACAGAAGACCTTATTAAAAAAGTTAGTGCGTGGAGT
B4: TaKN1 probe (TaKN-B1 sequence printed) (dsDNA)
DNA 1: TACTGCAGTATTGCCCTCCAGCTTTTTCCTCTCGCTCCCCATCTCCTTCCCTCTAATGATAGCTTAGAGAGAGAAGGAGAAAAGGCTATTCCGCTCAAGGCAAGGCAGGCAGGTACCCTTCTCCTTCCCCAAACCCAAACCCTTTTTCTCTTTCTCTCCGCCCAAGAACTTCACCTCAAGCTCAATCCGTCT
DNA 2: AGACGGATTGAGCTTGAGGTGAAGTTCTTGGGCGGAGAGAAAGAGAAAAAGGGTTTGGGTTTGGGGAAGGAGAAGGGTACCTGCCTGCCTTGCCTTGAGCGGAATAGCCTTTTCTCCTTCTCTCTCTAAGCTATCATTAGAGGGAAGGAGATGGGGAGCGAGAGGAAAAAGCTGGAGGGCAATACTGCAGTA
B5: TaBEL-A1 probe (dsDNA)
DNA 1: GCTTGCGTGTGTGTGCATCAGAGAGAAAGAGAGAGAGAGAGAGGCCTGCCGCCCAAGATCTCTCTTGATCAGTGCCGAGATCATCAATCAGGGGGGCCTGCCATCCAAGTGGGCATCTCCATTTTTCTTCCTCCTCGAGCTGGTTTCCGAGCCTGATAAAACCACCCTCCCCGGCCTCGCTCAACTGCTCCCCAGC
DNA 2: GCTGGGGAGCAGTTGAGCGAGGCCGGGGAGGGTGGTTTTATCAGGCTCGGAAACCAGCTCGAGGAGGAAGAAAAATGGAGATGCCCACTTGGATGGCAGGCCCCCCTGATTGATGATCTCGGCACTGATCAAGAGAGATCTTGGGCGGCAGGCCTCTCTCTCTCTCTCTTTCTCTCTGATGCACACACACGCAAGC

Legend:
Test in all cases: EMSA; 10 mM Tris pH 7.5, 50 mM KCl, 1 mM DTT, 2.5% glycerol, 0.05% NP-40, 5 mM MgCl2, 0.5 mM EDTA, 5 ng/uL poly(dI.dC), 1 ug protein, 100 fmol probe, room temperature 40 min
Settings in all cases: protein: recombinant; tags: MBP (N-terminal, pMAL-c2X); label: 3' biotin; blunt
[1] = biological target: T1, MBP-STF full length (STENOFOLIA)
MBP-STF S3 = biological target: T2, MBP-STF S3
MBP-STF S1 = biological target: T3, MBP-STF S1
MBP-STF S2 = biological target: T4, MBP-STF S2

| Binder | binding result [1] | binding result (MBP-STF S3) | binding result (MBP-STF S1) | binding result (MBP-STF S2) |
| --- | --- | --- | --- | --- |
| B1 | binds |  |  |  |
| B2 | binds | no binding |  |  |
| B3 | binds | no binding | binds | no binding |
| B4 | binds |  |  |  |
| B5 | binds |  |  |  |
